In paper PMC6412040:
Blank lines part the entries; values can stand above or below the substance they belong to.

Columns and labels:
[1] = target: USP37^mUIM1,2,3 (Danio rerio USP37 312–927 with mutations in all three UIMs) (Danio rerio) (UniProt E7F6T8)
[2] = target: USP37^wt (isolated catalytic domain of USP37 from Danio rerio, residues 312–927) (Danio rerio) (UniProt E7F6T8)
Chain of USP37^wt (isolated catalytic domain of USP37 from Danio rerio, residues 312–927) (Danio rerio) (E7F6T8 312-927): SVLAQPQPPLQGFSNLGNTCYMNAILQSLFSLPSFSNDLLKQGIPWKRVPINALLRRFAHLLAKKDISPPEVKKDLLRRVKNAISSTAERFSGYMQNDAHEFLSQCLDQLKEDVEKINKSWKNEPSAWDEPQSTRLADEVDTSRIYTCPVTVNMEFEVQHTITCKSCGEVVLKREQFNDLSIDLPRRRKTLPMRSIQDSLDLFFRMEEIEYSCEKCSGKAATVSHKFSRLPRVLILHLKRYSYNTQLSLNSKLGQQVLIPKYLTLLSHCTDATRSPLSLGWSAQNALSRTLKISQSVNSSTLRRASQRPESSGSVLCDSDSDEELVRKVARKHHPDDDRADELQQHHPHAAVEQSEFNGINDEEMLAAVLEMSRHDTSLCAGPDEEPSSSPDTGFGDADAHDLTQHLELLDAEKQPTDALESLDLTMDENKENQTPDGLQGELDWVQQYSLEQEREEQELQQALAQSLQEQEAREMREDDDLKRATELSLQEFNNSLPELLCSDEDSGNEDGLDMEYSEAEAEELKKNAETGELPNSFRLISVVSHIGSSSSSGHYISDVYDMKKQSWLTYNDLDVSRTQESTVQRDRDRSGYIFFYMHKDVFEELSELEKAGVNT

Chain of USP37^mUIM1,2,3 (Danio rerio USP37 312–927 with mutations in all three UIMs) (Danio rerio) (E7F6T8 312-927 V680G/S684A/A774G/S778A/A796G/S800A): as the sequence (E7F6T8 312-927) above, with V369G, S373A, A463G, S467A, A485G, S489A counted along it

KM of cleavage of K11-linked di-Ub (1 part IQF di-Ub, 4 parts unlabeled chain), Michaelis-Menten analysis, 25 nM enzyme [1]: 19 µM
kcat of cleavage of K11-linked di-Ub (1 part IQF di-Ub, 4 parts unlabeled chain), Michaelis-Menten analysis [1]: 0.072 s⁻¹
KM of cleavage of K11-linked di-Ub (1 part IQF di-Ub, 4 parts unlabeled chain), Michaelis-Menten analysis, 25 nM enzyme [2]: 11 µM
kcat of cleavage of K11-linked di-Ub (1 part IQF di-Ub, 4 parts unlabeled chain), Michaelis-Menten analysis [2]: 0.19 s⁻¹
Substance: K11-linked di-Ub (from UniProt P0CG48 1-76; P0CG48 1-76) (complex)

KM of cleavage of K63-linked di-Ub (1 part IQF di-Ub, 4 parts unlabeled chain), Michaelis-Menten analysis, 12.5 nM enzyme [1]: 3.6 µM
kcat of cleavage of K63-linked di-Ub (1 part IQF di-Ub, 4 parts unlabeled chain), Michaelis-Menten analysis [1]: 0.008 s⁻¹
KM of cleavage of K63-linked di-Ub (1 part IQF di-Ub, 4 parts unlabeled chain), Michaelis-Menten analysis, 12.5 nM enzyme [2]: 1.7 µM
kcat of cleavage of K63-linked di-Ub (1 part IQF di-Ub, 4 parts unlabeled chain), Michaelis-Menten analysis [2]: 0.027 s⁻¹
Substance: K63-linked di-Ub (from UniProt P0CG48 1-76; P0CG48 1-76) (complex)

KM of cleavage of K48-linked di-Ub (1 part IQF di-Ub, 4 parts unlabeled chain), Michaelis-Menten analysis, 1.25 nM enzyme [1]: 0.72 µM
kcat of cleavage of K48-linked di-Ub (1 part IQF di-Ub, 4 parts unlabeled chain), Michaelis-Menten analysis [1]: 0.015 s⁻¹
KM of cleavage of K48-linked di-Ub (1 part IQF di-Ub, 4 parts unlabeled chain), Michaelis-Menten analysis, 1.25 nM enzyme [2]: 0.4 µM
kcat of cleavage of K48-linked di-Ub (1 part IQF di-Ub, 4 parts unlabeled chain), Michaelis-Menten analysis [2]: 0.23 s⁻¹
Substance: K48-linked di-Ub (from UniProt P0CG48 1-76; P0CG48 1-76) (complex)
